According to article PMC5921532, “Identification of Iridoid Glucoside Transporters in Catharanthus roseus” (Plant and Cell Physiology, 2017):

How the values were obtained:
[1] = target: T1, AtNAT4 (Arabidopsis thaliana, UniProt P93039); test: uptake screen in Xenopus oocytes, LC-MS; assay type: cell-based; conditions: pH 5.0; Kulori buffer; 0.5-1 mM loganin, 1 h
T1 construct: gene NAT4; full-length cDNA from transporter library, cRNA expressed in Xenopus laevis oocytes
T1 sequence (P93039 1-526): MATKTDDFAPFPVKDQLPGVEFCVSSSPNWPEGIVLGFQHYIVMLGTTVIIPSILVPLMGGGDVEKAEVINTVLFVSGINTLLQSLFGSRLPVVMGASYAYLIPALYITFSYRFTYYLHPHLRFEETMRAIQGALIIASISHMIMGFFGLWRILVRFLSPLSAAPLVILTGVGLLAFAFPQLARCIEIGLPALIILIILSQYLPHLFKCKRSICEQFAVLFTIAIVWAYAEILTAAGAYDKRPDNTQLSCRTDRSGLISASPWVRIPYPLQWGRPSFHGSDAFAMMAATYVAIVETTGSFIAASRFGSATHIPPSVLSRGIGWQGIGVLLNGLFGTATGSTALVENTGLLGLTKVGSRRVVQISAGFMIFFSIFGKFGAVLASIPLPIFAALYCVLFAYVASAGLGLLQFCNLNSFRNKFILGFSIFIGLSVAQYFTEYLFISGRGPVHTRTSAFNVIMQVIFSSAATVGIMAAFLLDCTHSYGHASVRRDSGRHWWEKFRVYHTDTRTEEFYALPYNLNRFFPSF

[2] = target: T2, AtNPF2.9 (Arabidopsis thaliana, UniProt Q9M9V7); test: uptake screen in Xenopus oocytes, LC-MS; assay type: cell-based; conditions: pH 5.0; Kulori buffer; 0.5-1 mM loganin, 1 h
T2 construct: gene NPF2.9; full-length cDNA from transporter library, cRNA expressed in Xenopus laevis oocytes
T2 sequence (Q9M9V7 1-587): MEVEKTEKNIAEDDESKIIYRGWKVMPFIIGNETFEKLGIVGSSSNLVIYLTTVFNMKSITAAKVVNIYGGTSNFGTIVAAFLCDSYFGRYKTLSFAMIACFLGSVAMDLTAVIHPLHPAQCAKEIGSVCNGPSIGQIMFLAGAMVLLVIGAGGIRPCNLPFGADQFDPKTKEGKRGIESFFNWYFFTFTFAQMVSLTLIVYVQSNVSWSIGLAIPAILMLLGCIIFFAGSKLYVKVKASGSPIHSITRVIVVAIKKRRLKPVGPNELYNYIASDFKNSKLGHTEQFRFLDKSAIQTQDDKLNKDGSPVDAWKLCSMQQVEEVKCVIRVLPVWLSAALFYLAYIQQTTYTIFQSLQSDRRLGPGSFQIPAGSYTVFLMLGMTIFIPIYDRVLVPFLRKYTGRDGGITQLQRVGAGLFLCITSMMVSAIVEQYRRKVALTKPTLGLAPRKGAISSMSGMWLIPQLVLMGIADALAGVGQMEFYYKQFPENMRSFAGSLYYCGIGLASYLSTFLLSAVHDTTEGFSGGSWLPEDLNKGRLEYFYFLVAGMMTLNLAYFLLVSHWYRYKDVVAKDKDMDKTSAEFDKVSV

[3] = substrate: COC(=O)C1=CO[C@@H](O[C@@H]2O[C@H](CO)[C@@H](O)[C@H](O)[C@H]2O)[C@@H]2[C@@H](C)[C@@H](O)C[C@H]12; test: uptake into Xenopus oocytes, LC-MS, Michaelis-Menten fit; assay type: cell-based, Catharanthus roseus; conditions: pH 5.0, Kulori buffer, 12.5 µM to 2 mM loganin

Molecule: COC(=O)C1=CO[C@@H](O[C@@H]2O[C@H](CO)[C@@H](O)[C@H](O)[C@H]2O)[C@@H]2[C@@H](C)[C@@H](O)C[C@H]12 [loganin, (1S,4aS,6S,7R,7aS)-6-hydroxy-7-methyl-1-[(2S,3R,4S,5S,6R)-3,4,5-trihydroxy-6-(hydroxymethyl)oxan-2-yl]oxy-1,4a,5,6,7,7a-hexahydrocyclopenta[c]pyran-4-carboxylate]
- uptake screen in Xenopus oocytes, LC-MS [1]: Two transporters were identified
- uptake screen in Xenopus oocytes, LC-MS [2]: initially screened cDNA library

B1: CrNPF2.4 (Catharanthus roseus) (protein)
chain: MAEKSSSIDATENGFVKIKEPNHRGVKAMPFIVGNETFEKLGTLGTSANLLIYLTTVFHMKSITATNLINIFNGTCNFGTLLGAFFSDTYFGRYKTLGFASVSSTLGMLILTLTAAISKLHPPSCEKNSKACSGPTSGQFAFLFTAFLFLIIGASGIRPCNLAFGADQFNPNTESGRKGTNSFFNWYYFTFTFAMMVSLTVIVYVQSSISWALGLAIPTFLMLLSCVFFFVGSRIYVKVLPEGSPLTSMMQVIVAAFRKRKLNLPDHQPWDSLFNYISPSSINSKLSYTDQFRWLNKAAIKTSKDHLYAEGSTANPWRLCSMQQVEEVKCVIRSIPIWTSGVLYYVVLNQMSTYLVFQALQSDRRIGKTNFKIPAASYTVFSMLSLSIWIPIYDRIIVPFLRKITKTEQGITILQKMGFGLVIAVITMVVSAIIEDKRRVIALTRPIVGIEERKGGISSLSGFWLVPQLALAGISEAFTVIAQVEFFYKQFPENMRSFGGSFLFCGFAISSYLSSFLISIVHKVTRNSSGGNWLDEDLNKARLDYFYYLVAGLEVLNFGYFLVCAHWYRYKETQSGNEIAMEQILDEPKKNLDVV
notes: full-length, Gateway cloned from C. roseus cDNA into pOO2-GW, cRNA expressed in Xenopus laevis oocytes
- Km [3]: 237 ± 35 µM

B2: CrNPF2.6 (Catharanthus roseus) (protein)
chain: MEKNEKLVPNGTKEDGKVAAKNEPNYRGIKAMPFVLGNETCEKLGTIGTSSNLSVYLSTVFHMNTMSANNVINIFNGTCYLGSLVGAFLCDTYFGRYKTLGLGSVASFLGMLMLTLTAAISTLHPTNCDNSGDCKGPSAGQMAFLVGGFVLMVIGASGIRPCNLAFGADQFNPNTESGRRGINSFFNWYYFTYTFAVMVSATIIVYVQSDISWSIGFAIPTSLMFLSCALFFAGTWLYVKVLPQGSPMTSLVQVIVVSVKKRRLKLPGEPSLLFNHIPSNAINSKLPRTNNFRFLDKAAILTPEDKVNPDGSAANKWKLCSIQQVEEVKCVLRVLPIWIAGVIFQISVTQQSNYVPFQAFQSDRHLIKGNKFQIPAGTYNVFSMLALTIWLPIYDRIIIPLLRRWTKKEDGITLLQRMGVGIVLSILSMLVSALVESRRRNLALTRPTLGIQEGQGSISSMSALWFVPQLALMGLAEGFTFIGENELFYKEFPENMRSIAASLVLCGVAVASYLTSFIAEIVHKTTRSGTRDWLAQDLNKARLDYFFYMVAVLEALNLVYFLVCAKWYRYKGTGDLGKLEVAMEKLETEKHLV
notes: as for B1
- Km [3]: 60 ± 5 µM

B3: CrNPF2.5 (Catharanthus roseus) (protein)
chain: MEENQEHKAIKNHEPNYRGIKAMPFVIGNETFEKLGTIGTSTNLLIYLTSVFHMKTITATNLVNIFNGTCNFGTLVGAFLCDTYFGRYNTLGFASVSSFLGMLVLTLTAAIKNLHPEACGNEEGSKCISPSGGQMAFLLSGFAFLIVGASGIRPCNLAFGADQFNPNTDSGRRGINSFFNWYYFTYTFAMMVSLTIIVYVQSNISWSIGLAIPTFLMFLSCATFFVGTRIYVRVLPEGSPLISVARVIVSAFKKRKLELPDEPKLSLFNHSASSTSSINSKISYTDQFRFLNKAAIITSEDEFNSDGSVKNPWRICTIQQVEEVKCLLKLIPVWISCIIYYISVVQQQNYVVFQALQSDRRLFGTSKFKIPAASYIVIAMLALTIWIPIFDRIIVPCLQKITGKEGGITILQRMGIGMVLSVLTMITSALVESKRRKFALNRPTLGFEPRKGAISSMSGVWLIPQLALSGLSEAFTIIGENELFYKECPENMRSIAMALVFVGFAGSSYLSSLLSSIVQKTTGGNESWLAEDLNRGRLDYFYYLIGALETLNLIYFLVCSKWYKYKQVEKIPQVAMEKLNNVEEKSLV
notes: as for B1
- Km [3]: 387 ± 57 µM
